{"source": "paper PMC8506132", "about": "“Structural and Kinetic Insights Into the Molecular Basis of Salt Tolerance of the Short-Chain Glucose-6-Phosphate Dehydrogenase From Haloferax volcanii” (Frontiers in Microbiology, 2021)", "proteins": {"B1": {"name": "HvG6PDH (Haloferax volcanii DS2) (protein)", "chain": "MDQPVLLTGAGGRVGQAILGHIGDAYDWRLLDREPLSDEKIPDSVDSTEVYVADVTDETAVRNAMDGVHAVIHLAGDPRPEAPWDSVLRNNIDGTQQMFDAAVDVGVEKFAFASSNHAVGAYETTDRTPDMYRPHHEFRLDGTELPRPSNLYGVSKAAGETLGRYYHDHHDISVVNVRIGNLTQHHPPKEYERGQAMWLSYRDCGHLFECCIEADYDYEIVYGISDNDRKYYSIDRARAVLGYDPQDNSAEFTFEGEPLDEA", "notes": "modelled as dimer"}}, "substrate": "NC(=O)c1ccc[n+]([C@@H]2O[C@H](COP(=O)(O)OP(=O)(O)OC[C@H]3O[C@@H](n4cnc5c(N)ncnc54)[C@H](O)[C@@H]3O)[C@@H](O)[C@H]2O)c1", "experiment": "purified protein", "assay_type": "biochemical, Haloferax volcanii", "conditions": "2.0 M KCl, G6P co-substrate, pH 7.5, 25 °C, varied: cofactor"}
{"protein": "B1", "values": [{"measurement": "Km", "value": "280 ± 68", "unit": "µM"}, {"measurement": "kcat", "value": "48.5 ± 4.3", "unit": "s⁻¹"}]}
